The source of these data is patent US20030068675, “Position dependent recognition of GNN nucleotide triplets by zinc fingers” (published 2003).

What all share (test): EMSA
What all share (settings): tags: MBP fusion
A general note: Mobility shift assays separate free from complexed probe on a gel.

One data set has as its target ZFP SBS#388 (synthetic). On the procedure: (§1) Affinity is measured by titrating purified protein against a fixed amount of labeled double-stranded oligonucleotide target. The target typically comprises the natural binding site sequence flanked by the 3 bp found in the natural sequence and additional, constant flanking sequences. The natural binding site is typically 9 bp for a three-finger protein and 2×9 bp +intervening bases for a six finger ZFP. […] For the assay the target is added at a concentration of 1 nM or lower (the actual concentration is kept at least 10-fold lower than the expected dissociation constant), purified ZFPs are added at various concentrations, and the reaction is allowed to equilibrate for at least 45 min. In addition the reaction mixture also contains 10 mM Tris (pH 7.5), 100 mM KCl, 1 mM MgCl2, 0.1 mM ZnCl2, 5 mM DTT, 10% glycerol, 0.02% BSA. (NB: in earlier assays poly d(IC) was also added at […].) The equilibrated reactions are loaded onto a 10% polyacrylamide gel, which has been pre-run for 45 min in Tris/glycine buffer, then bound and unbound labeled target is resolved by electrophoresis at 150V.

In a further data set the target is ZFP SBS#387 (synthetic). On the procedure:
as §1

The target in the next data set is T1, ZFP SBS#390 (synthetic).
T1 chain: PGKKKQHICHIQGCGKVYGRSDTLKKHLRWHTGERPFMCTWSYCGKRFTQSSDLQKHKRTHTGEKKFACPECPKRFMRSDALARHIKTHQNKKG
On the procedure:
as §1

A further data set concerns the target T2, ZFP SBS#400 (synthetic).
T2 chain: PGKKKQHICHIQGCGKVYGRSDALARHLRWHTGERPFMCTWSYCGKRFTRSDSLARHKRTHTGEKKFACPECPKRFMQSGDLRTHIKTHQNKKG
On the procedure:
as §1

The target in a further data set is T3, ZFP SBS#410 (synthetic).
T3 chain: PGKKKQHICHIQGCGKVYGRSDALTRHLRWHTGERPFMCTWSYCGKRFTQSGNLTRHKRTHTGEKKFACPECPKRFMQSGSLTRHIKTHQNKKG
On the procedure: as §1

Another data set has as its target ZFP SBS#502 (synthetic, UniProt P08047). On the procedure: as §1
The target of another data set is T4, ZFP SBS#385 (synthetic).
T4 chain: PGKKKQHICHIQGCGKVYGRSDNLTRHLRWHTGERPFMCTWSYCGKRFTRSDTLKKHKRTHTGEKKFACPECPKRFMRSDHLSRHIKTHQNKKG
On the procedure:
as §1

Another data set concerns the target T5, ZFP SBS#386 (synthetic, UniProt P08047).
T5 chain: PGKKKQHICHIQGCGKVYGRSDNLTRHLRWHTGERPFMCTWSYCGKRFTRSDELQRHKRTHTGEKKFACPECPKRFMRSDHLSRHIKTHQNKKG
On the procedure:
as §1

The target of another data set is ZFP SBS#510 (synthetic). On the procedure: as §1
Chain of ZFP SBS#510 (synthetic) (chain, as listed by the source): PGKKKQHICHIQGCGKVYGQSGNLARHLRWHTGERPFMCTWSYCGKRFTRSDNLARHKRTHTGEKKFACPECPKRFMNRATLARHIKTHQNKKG
The target in another data set is ZFP SBS#511 (synthetic). On the procedure:
as §1

A further data set addresses T6, ZFP SBS#384 (synthetic).
T6 chain: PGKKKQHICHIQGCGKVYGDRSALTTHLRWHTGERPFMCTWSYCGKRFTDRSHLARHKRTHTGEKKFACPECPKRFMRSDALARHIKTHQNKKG
On the procedure:
as §1

The target in another data set is ZFP SBS#413 (synthetic). On the procedure:
as §1

The target in a further data set is T7, ZFP SBS#409 (synthetic).
T7 chain: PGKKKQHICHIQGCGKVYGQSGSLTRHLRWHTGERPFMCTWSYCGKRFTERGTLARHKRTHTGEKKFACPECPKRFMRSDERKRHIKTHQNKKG
On the procedure: as §1

In the next data set the target is T8, ZFP SBS#406 (synthetic).
T8 chain: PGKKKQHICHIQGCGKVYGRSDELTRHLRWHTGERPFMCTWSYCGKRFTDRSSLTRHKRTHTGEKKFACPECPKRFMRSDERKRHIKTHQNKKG
On the procedure: as §1

The target of the next data set is T9, ZFP SBS#405 (synthetic).
T9 chain: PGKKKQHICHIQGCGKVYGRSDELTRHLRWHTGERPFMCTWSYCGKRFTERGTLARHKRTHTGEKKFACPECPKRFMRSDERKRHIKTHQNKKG
On the procedure:
as §1

Another data set concerns the target T10, ZFP SBS#407 (synthetic).
T10 chain: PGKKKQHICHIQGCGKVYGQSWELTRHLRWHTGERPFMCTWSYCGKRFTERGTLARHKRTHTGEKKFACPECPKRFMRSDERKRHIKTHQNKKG
On the procedure:
as §1

For a further data set, the target named is T11, ZFP SBS#408 (synthetic).
T11 chain: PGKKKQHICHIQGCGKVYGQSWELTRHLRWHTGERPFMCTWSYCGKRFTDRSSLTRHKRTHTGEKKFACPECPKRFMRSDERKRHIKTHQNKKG
On the procedure:
as §1

For the next data set, the target named is ZFP SBS#397 (synthetic). On the procedure: as §1
Chain of ZFP SBS#397 (synthetic) (chain, as listed by the source): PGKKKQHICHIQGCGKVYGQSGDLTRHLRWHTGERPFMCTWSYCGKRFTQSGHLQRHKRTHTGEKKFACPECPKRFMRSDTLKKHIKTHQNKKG
Another data set deals with ZFP SBS#396 (synthetic). On the procedure: as §1
Chain of ZFP SBS#396 (synthetic) (chain, as listed by the source): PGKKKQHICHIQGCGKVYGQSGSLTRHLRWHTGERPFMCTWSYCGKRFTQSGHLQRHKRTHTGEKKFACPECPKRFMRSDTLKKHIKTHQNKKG
The target in another data set is ZFP SBS#509 (synthetic). On the procedure:
as §1

In the next data set the target is T12, ZFP SBS#507 (synthetic).
T12 chain: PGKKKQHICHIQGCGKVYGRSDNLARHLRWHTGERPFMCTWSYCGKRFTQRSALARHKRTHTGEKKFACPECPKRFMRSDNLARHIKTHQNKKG
On the procedure:
as §1

Another data set deals with T13, ZFP SBS#508 (synthetic).
T13 chain: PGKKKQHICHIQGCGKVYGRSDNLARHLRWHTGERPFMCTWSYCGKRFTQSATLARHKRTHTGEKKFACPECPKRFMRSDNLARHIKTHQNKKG
On the procedure:
as §1

The target of the next data set is T14, ZFP SBS#501 (synthetic).
T14 chain: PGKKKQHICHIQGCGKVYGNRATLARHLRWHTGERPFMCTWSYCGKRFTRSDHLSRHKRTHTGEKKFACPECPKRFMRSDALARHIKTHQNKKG
On the procedure: as §1

A further data set deals with T15, ZFP SBS#493 (synthetic, UniProt P08047).
T15 chain: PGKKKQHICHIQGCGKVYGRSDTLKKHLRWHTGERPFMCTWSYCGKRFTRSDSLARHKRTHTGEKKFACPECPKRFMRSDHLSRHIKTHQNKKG
On the procedure: as §1

The target of another data set is T16, ZFP SBS#378 (synthetic).
T16 chain: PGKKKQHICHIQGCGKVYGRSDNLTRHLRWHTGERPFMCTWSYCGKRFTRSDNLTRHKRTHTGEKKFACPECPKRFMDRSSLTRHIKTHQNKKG
On the procedure: as §1

Another data set has as its target T17, ZFP SBS#494 (synthetic).
T17 chain: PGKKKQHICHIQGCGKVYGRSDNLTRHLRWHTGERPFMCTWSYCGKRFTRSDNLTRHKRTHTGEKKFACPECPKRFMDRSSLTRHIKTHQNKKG
On the procedure: as §1

The next data set has as its target T18, ZFP SBS#379 (synthetic).
T18 chain: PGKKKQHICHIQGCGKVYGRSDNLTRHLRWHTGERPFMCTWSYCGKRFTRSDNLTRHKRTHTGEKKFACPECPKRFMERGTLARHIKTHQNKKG
On the procedure:
as §1

In a further data set the target is ZFP SBS#339 (synthetic). On the procedure: as §1
Chain of ZFP SBS#339 (synthetic) (chain, as listed by the source): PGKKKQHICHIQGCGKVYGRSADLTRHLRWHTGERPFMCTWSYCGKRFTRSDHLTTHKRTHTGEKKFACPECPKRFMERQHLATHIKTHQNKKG
Another data set addresses ZFP SBS#346 (synthetic). On the procedure:
as §1

The target in a further data set is ZFP SBS#344 (synthetic). On the procedure:
as §1

The target of the next data set is ZFP SBS#343 (synthetic). On the procedure:
as §1

For the next data set, the target named is ZFP SBS#345 (synthetic). On the procedure:
as §1

The target of a further data set is ZFP SBS#338 (synthetic). On the procedure:
as §1

Another data set has as its target ZFP SBS#337 (synthetic). On the procedure: as §1
In another data set the target is T19, ZFP SBS#340 (synthetic).
T19 chain: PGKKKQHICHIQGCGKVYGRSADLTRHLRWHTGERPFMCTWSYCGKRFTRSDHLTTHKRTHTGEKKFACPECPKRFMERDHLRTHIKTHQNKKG
On the procedure: as §1

A further data set concerns the target ZFP SBS#412 (synthetic). On the procedure:
as §1

Chain of ZFP SBS#412 (synthetic) (chain, as listed by the source): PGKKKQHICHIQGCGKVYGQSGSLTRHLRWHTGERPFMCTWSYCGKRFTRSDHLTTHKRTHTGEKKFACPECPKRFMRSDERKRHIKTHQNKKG
Chain of ZFP SBS#388 (synthetic) (chain, as listed by the source): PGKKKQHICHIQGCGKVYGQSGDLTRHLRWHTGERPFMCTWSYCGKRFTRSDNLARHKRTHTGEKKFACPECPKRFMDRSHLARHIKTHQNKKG
Chain of ZFP SBS#344 (synthetic) (chain, as listed by the source): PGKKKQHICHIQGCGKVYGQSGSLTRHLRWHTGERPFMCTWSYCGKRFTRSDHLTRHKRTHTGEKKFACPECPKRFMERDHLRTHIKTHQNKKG
Chain of ZFP SBS#511 (synthetic) (chain, as listed by the source): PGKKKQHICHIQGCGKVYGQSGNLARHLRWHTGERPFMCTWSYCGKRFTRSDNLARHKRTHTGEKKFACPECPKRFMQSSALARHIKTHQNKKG
Chain of ZFP SBS#337 (synthetic) (chain, as listed by the source): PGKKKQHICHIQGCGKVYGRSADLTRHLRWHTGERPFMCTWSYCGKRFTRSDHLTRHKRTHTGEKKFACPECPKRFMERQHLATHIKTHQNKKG
Chain of ZFP SBS#509 (synthetic) (chain, as listed by the source): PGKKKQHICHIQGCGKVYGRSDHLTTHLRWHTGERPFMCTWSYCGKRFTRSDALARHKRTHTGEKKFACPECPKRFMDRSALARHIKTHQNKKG
Chain of ZFP SBS#502 (P08047 other isoform, or with tags, fused parts or gaps): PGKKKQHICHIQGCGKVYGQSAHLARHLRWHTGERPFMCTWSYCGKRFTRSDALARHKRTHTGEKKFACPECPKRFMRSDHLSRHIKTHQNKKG
Chain of ZFP SBS#387 (synthetic) (chain, as listed by the source): as the sequence (P08047 other isoform, or with tags, fused parts or gaps) above, with A22G, H23S, A25T, A53N, R78D, S79R, D80S, S83A counted along it
Chain of ZFP SBS#338 (synthetic) (chain, as listed by the source): as the sequence (P08047 other isoform, or with tags, fused parts or gaps) above, with Q20R, H23D, A25T, A53H, A55T, R78E, S79R, S83R, R84T counted along it

B1: GGCGAGGCAA (dsDNA)
DNA 1: GGCGAGGCAA
DNA 2: TTGCCTCGCC
One may read the Kd as a measure of binding affinity in units of concentration. As for B1, the Kd in the data set with ZFP SBS#388 was 28 nM; with ZFP SBS#387 it was 2.5 nM.

B2: GTGGCAGCGG (dsDNA)
DNA 1: GTGGCAGCGG
DNA 2: CCGCTGCCAC
Take B2: the Kd with ZFP SBS#390 came out at 20 nM.

B3: TCAGTGGTGG (dsDNA)
DNA 1: TCAGTGGTGG
DNA 2: CCACCACTGA
Consider B3, for which the Kd in the data set with ZFP SBS#400 is 40 nM.

B4: GCAGAAGTC (dsDNA)
DNA 1: GCAGAAGTC
DNA 2: GACTTCTGC
In the case of B4, the dissociation constant Kd with ZFP SBS#410 amounted to 3 nM.

B5: GGGGTGGGA (dsDNA)
DNA 1: GGGGTGGGA
DNA 2: TCCCACCCC
As to B5, the Kd with ZFP SBS#502 came out at 60 nM.

B6: GGGGCGGAGC (dsDNA)
DNA 1: GGGGCGGAGC
DNA 2: GCTCCGCCCC
As to B6, the values for the Kd with ZFP SBS#385 and in the data set with ZFP SBS#386 were 1.2 nM and 0.4 nM, respectively.

B7: GTTGAGGAAG (dsDNA)
DNA 1: GTTGAGGAAG
DNA 2: CTTCCTCAAC
Consider B7, for which the Kd with ZFP SBS#510 and with ZFP SBS#511 was 100 nM in each case.

B8: GTGGGCTTCA (dsDNA)
DNA 1: GTGGGCTTCA
DNA 2: TGAAGCCCAC
B8 displayed a dissociation constant (Kd) in the data set with ZFP SBS#384 of 60 nM.

B9: GCGTGGGCA (dsDNA)
DNA 1: GCGTGGGCA
DNA 2: TGCCCACGC
In the data set with ZFP SBS#413, B9 registered a Kd of 5 nM.

B10: GCGGCCGCA (dsDNA)
DNA 1: GCGGCCGCA
DNA 2: TGCGGCCGC
B10: the Kd with ZFP SBS#409 worked out at 50 nM; with ZFP SBS#406, 110 nM; with ZFP SBS#405, 110 nM; with ZFP SBS#407, 410 nM; with ZFP SBS#408 it was 380 nM.

B11: GCGGGAGCAG (dsDNA)
DNA 1: GCGGGAGCAG
DNA 2: CTGCTCCCGC
As to B11, the Kd in the data set with ZFP SBS#397 was determined as 25 nM; with ZFP SBS#396 it was 18.8 nM.

B12: GTCGTGTGGC (dsDNA)
DNA 1: GTCGTGTGGC
DNA 2: GCCACACGAC
Turning to B12, in the data set with ZFP SBS#509, binding was characterised by a dissociation constant (Kd) of 100 nM.

B13: GAGGTAGAGG (dsDNA)
DNA 1: GAGGTAGAGG
DNA 2: CCTCTACCTC
With B13, the Kd with ZFP SBS#507 and in the data set with ZFP SBS#508 was 10 nM throughout.

B14: GTGGGGGTT (dsDNA)
DNA 1: GTGGGGGTT
DNA 2: AACCCCCAC
Molecule B14 registered an equilibrium dissociation constant (Kd) with ZFP SBS#501 of 8 nM.

B15: GGGGTGGCGG (dsDNA)
DNA 1: GGGGTGGCGG
DNA 2: CCGCCACCCC
As to B15, binding in the data set with ZFP SBS#493 was put at a Kd of 300 nM.

B16: GCCGAGGAGA (dsDNA)
DNA 1: GCCGAGGAGA
DNA 2: TCTCCTCGGC
As to B16, the figures for the dissociation constant Kd in the data set with ZFP SBS#378, with ZFP SBS#494 and in the data set with ZFP SBS#379 were 31 nM, 90 nM and 3 nM, respectively.

B17: TGCGGGGCAA (dsDNA)
DNA 1: TGCGGGGCAA
DNA 2: TTGCCCCGCA
Take B17: the Kd with ZFP SBS#339 worked out at 64 nM; with ZFP SBS#346, 64 nM; with ZFP SBS#344, 6 nM; in the data set with ZFP SBS#343 it was 8 nM; with ZFP SBS#345, 96 nM; in the data set with ZFP SBS#338, 8 nM. The dissociation constant Kd with ZFP SBS#337 is 24 nM; in the data set with ZFP SBS#340 it was 48 nM.

B18: GCGTGGGCG (dsDNA)
DNA 1: GCGTGGGCG
DNA 2: CGCCCACGC
The molecule B18 had an equilibrium dissociation constant (Kd) with ZFP SBS#412 of 5 nM.
